Experimental data as given in the domain aggregation screens of Martell et al. (2025).

experiment: soluble fraction after stress (log2 fold change); higher = more stays soluble; pooled small domains, quantitative proteomics; settings: stress: 50 degC
In short: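 Pooled custom libraries of small protein domains were each held under stress at 50°C. The read-out, high-throughput quantitative proteomics, tracked how much of each protein stayed soluble. This is reported as a base-two log fold change used to indicate aggregation propensity. Higher values mean more protein remains in solution.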

Sequence	soluble fraction (log2)
HMHPTDMKLTARLEEGAQFVRTQQLSKAIEIFTEVIKLDQNWAEAWNKRATVFYMMGKFKQSQEDIDKVLA	-0.0571
HMEVPDTIIRLRELVAAMPEQWQKVYRLVFMEGLSKAKAGKKIGISDVRVGQLVKKINAAIAGDETLK	-0.714
HMINYSQKQLIAIQDELSKRFQALENESTKNNVTGFGVGLHYIDIDLIVNTPEKQKEFREKIMDSPAFRFN	-0.839
HMNQRTATVTASQLNVRSGPSTAYSIVHVLRQGETVEVIGESDGWYQIRLKDGRVGWSSGQYLNLN	0.0784
HMKPSNLTSDERTQLLAQLKTAMGSDQYNQLRRQVGEEKLLEYVLDNVPGIQEEILGNRAVQENIDLH	0.23
HMKLHQDLQIKVIDAANNKVEFIDTATGTSLATRTLDVNGVSKARGFEATLYGVVEDNDVFHIA	0.158
HMHTSEDLEKLLTRYFQSHESINRQQFEQLSGFTRTTASRRLKALVEAGKLKNIGLHHFPVYKPTEGNF	-0.354
HMEIDMQEGIKTIILMMKEHNITPSEAMKIYKSANGDIHYISKIYNHFKNKGADNFVALMIKMVKPGEFIE	-0.00191
HMTDTIALRSVIAESGLKYKALAEIMGLSPYTLQMKIDNESEFKASEIDALANALGMDMQQRDSIFF	-0.701
HMSVPQENKDLLGRSIEIFYAGKTVEAKVTDTGALAPLGRALDLSPATWRAFGASSISDWGVRGVFYRFVA	0.0464
HMPLNAHIVGRGKRDRRGKRGAPYSIVLELGRDENGKRIQKWYSGYPTKAAAEEDKIRMLRELQTGEYVPQ	-0.309
HMKMNFNEEEQKLLSEANVLVETNKTYTDDEVKGFSNKIVEHIMTFSKTDIPKVKSKFDPILFKI	-0.244
HMRLDHIFSVVERLKGVSLGAGDRLEVQKYEDLLTVYKSKNALSSEEAQTLNDILASLLKMMAKYD	-0.00461
HMEEFIEHTVEKGEFLSAIIVAYNQHLKSKGFKSITTRDILNANPKLKPELIQVGQKIKIPRRKK	0.29
HMGAQINSPISGTILKYLVKNGDKITKDQPLVNIESMKMENTIKSDKEGIVNNINFKIGDSVNTADTLLTL	0.0243
HMYSKVSFTVSVGMTSERVSASLKALGIIDDSAKFNRYLVSNGYSTRIKVGTVELQAGQSYAEIASKLV	-0.826
HMNMVEESVKKSSQWAVFEPNTISTWVKIQAMIENYLYQKWKEGALAGAKPEHAFFVKVGLGETM	0.163
HMETAVMPDVMKLDSTTAIQALKDKGFATIETYEVKSDRPAGVVVRQSETADSVVALSKEILLGVSNGADY	0.304
HMLRISLAAARVNAEMTQEDVAREMHVSKNTVVNWEKGKSEPTISQSRELSKLYNMPLEYIFYL	-3.05
HMKPVSEMDNMEWVREQYFQNMIYEIGEWVKDKKTGIVGEIVKRGTNYVTIVQEDFSLHKIWLEDLETTE	-0.325
HMVFADRLRALRKKSGLTQDEFSKQTGIGRSAVGMYESGKREPNYTTLSKVARFYHVSTDYLLGRTDTP	-1.04
HMASLSITVNGETRRAAPGSIADLVRAIGLDPAKVAVERNGEIAPRSTLADVALADGDVLEIVHFVG	-0.0709
HMGRGAAKGPLKELGLDPVTGRPLVVKDGKFGMYVTDGETNAGLRRGDLVEQLTLDRGMELLAERRARADQ	0.203
HMRVDLVQRLARHGLSPRQSAVAGGVLRGLDNGEISRQLYIAEQTVKDHLHEIYHRLGVHTRTELLIKVLG	-1.6
HMLSDEDMMELAIIENLQRENLNPIEEARAYESLIDKGFTHTEIADKMGKSRPYISNSIRLLSL	0.162
HMENSPLTHREAEVMRLMSEGKSNRAISEHLVISEKTVKNHVSSILQKMSVDDRTQAVLQAIKNGWVD	0.23
HMEQLIIQEELSGKRLDQLVSLLFPSLTRAHAQKLIKEGAVLVNEKPRKPAYAVMTGELLTVELPEPE	-0.0616
HMNEKMKEIGLRIKELRELSDISAQGMADHLKIPLETYQEYEDGKKDIPASILFEISQKMEVDMGLLLTGE	-0.0988

Sequence	soluble fraction (log2)
HMAFAQMAQEAAKGKDDFNDLRQEMEAVIKEQPHILLMAQFGQNPYEIAYQEAKRRKAQDQQQQQ	0.288
HMDDVGYLRKRLQQALAQLSDDLRNTYTLFQIGKQSIKQIAAETGASESLVKVRIHRAKQKLQELLADLQ	-0.987
HMNPNSIDEKLKLLSNREKEVAILVLKKLSYFEISEQLNITIRTVKAHTKNIYEKFNVSNRLAFLLLFN	-0.225
HMNAISIDEAKKIALAKVSGASDQHIRIEADHDDGRLVYEGEIHYGRVEYEFEIDGSTGAIIEWDADRK	-0.341
HMQMSERENTILLTKRYIERGEYERAMNLLDSLLIKNALDEEALAMIDEIIALKAGASLQDFPRY	-0.684
HMSMTLSVLDDVRGLSESRRKQLFHSFGSIKKLREQSKETLMSIPYLPEKVALELYDKLHEE	-0.218
HMRMNASERQNQIVDLLSQNGVMKIMDIADHFNVSRETIRRDLIILEDDNRIKKWFGGVISAN	-0.461
HMRVGISRNSGAAGIAVWLTQKLGRPVAKTEEIVHILKNWVDDQYEAGRVTNIGDGELWSVYKQMEAEE	-0.359
HMAVSGRGSIIGGVATVLDDFADSGKVWLEGEAWQARSSVPLKQDQEVVVRAMDGLVLVVEPVA	-0.198
HMPNIHVVFAEEWTDRRLDKVLSEYFDGYSRSFIKKLFDDGLILVNSKAVKPSYKVRAGDMIDISVPDPV	-0.646
HMNDLKEDTITVQSVEYIDSDDGTMVYIKDTNHQVYKQAFKEDESLIRISAGDVLHVKYQPMDNEIHLL	-0.364
HMNSFGWESFVGEKGVTDTDLRPSGWIVIKDKRLFALTEGTFIEKGVSVEILSVEGNRIVVREIS	-0.249
HMTLPEKSKRLFSQDDFWDQIFYRIGEGQSLREVSKYYKIPYTTIHDRIHSDEGIKLKYLEALTS	-0.71
HMDIANEQEQIFITAMRNDDFNPILELKMKGYQPSKNVLKSLQPDVSSTTFIAAAKIFQMEGVL	-0.144
HMEETLRELAVKISKQVIKTGRNSVLEPMNPYERRIIHAVISEIEGVSSKSVGEDPNRKVVIMSTNP	-0.126
HMTKLPLLVELSRIIPTDTWVKKIKFSLGSVEFVGISKSASRLLPIVENSSYFHDTKFIGTIVT	-0.486
HMSLSKEEFETISKQVLELAGAGPIPVKELLQKMERTSKEKAWKVIEFLQAEDKIVPDATGRIQL	-0.068
HMYSLSELERIKNFLTGYMSDYSIMMLDANEITNQVDISLKDYSDDNIESIKAAVLSHGGKTDYLNFIDDS	-0.589
HMTLSENEKIIVDTIMKYQPLHIDVLNQQVKVDFYTLLGLLTKLEMEGIVLKNPGNIYKINTL	-0.346
HMTSLSYINDLVTGATAQGLYRIVVPNQFMDDNMANVLRRTYGYQVQSRTSLMGTFDDYIISWAPPM	-2.45
HMVLGSSVAMGQKIGDSDLTWVEVPLSSAFDRFLSEPEWRGSSDLVAARLLEAGVFLTEDDVVE	0.0949
HMDGFVFVMPIKETRMFSVNDERPLVGIVKYSNGEFEKEQLIGFRPNSEYEFIIEGQRLYRVPVNSITIK	-0.886
HMNEFNEVVPDSLEGERLDRLLAFIGNISRSEASNIIKGGEVLINGKVVTRPSFKVTLGNRVEFSIRD	-0.387
HMGTTTPPATRKGKVTSSFLNVRSGPSTANAKVAELKQNAVVTIYETSSNGWHRIGVNQWVIGTNIQE	-0.441
HMNEFGIPDKKLQDIETRVNSMSLEQLNAARSMLIDEQEALNSSTGSASSGRLKEIAAELSTIQKALIAIA	0.163
HMSGIESIVIPLKGLDFDMISSTLTPQLKQAIKYDKQSDSIILVGTNAKVNIIAKQVNAMVEVYKLKT	-0.444
HMNSILFAITKEGGVVYGGKPVGVNGVRPLVRRLLQSEEMPVILQVDEKADAGLVIRVIDESKLGGASKV	-0.269
